Values of other authors, collected in publication PMC5576430.
Where two headings read alike, the source gives them in different places. Values belong to the substance of their own block, whether it stands above or below them.

Assays:
[1] = molecular target: p300 CH1 (Homo sapiens) (UniProt Q09472); test: tryptophan fluorescence
[2] = molecular target: p300 CH1 (Homo sapiens) (UniProt Q09472)
[3] = molecular target: HIF-1α (Homo sapiens) (UniProt Q16665)

Sequence of UniProt Q09472 (Q09472 331-417): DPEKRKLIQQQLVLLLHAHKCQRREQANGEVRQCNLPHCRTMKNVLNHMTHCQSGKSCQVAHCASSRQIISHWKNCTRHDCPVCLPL

Kd [1]: 6060 nM
Substance: HIF-1α helix 3 unconstrained peptide helix 3 (from UniProt Q16665)

Kd [2]: 825 nM
Substance: HIF-1α C-TAD helix 2 peptide

Kd [3]: 124 nM
Substance: cyclo-CLLFVY
